Reference: US10012655B2, “Method for quantitating total HMGB1 protein in biological samples” (INSTITUT PASTEUR, priority 2008, dated 2018)

Experiments:
[1] = test system: RAGE; assay: Surface expression of RAGE on DCs (flow cytometry); type: cell-based, human; details: uninfected iDCs incubated with 1 μg/ml
Description: FIG. 3 (a)-(e). aNK-dependent maturation of HIV-1-infected iDCs is mediated by HMGB1 and involves RAGE. (a) Left panel: iDCs were cultured for 24 h either alone or with aNK cells, in the presence of blocking anti-HMGB1 antibodies (10 μg/ml) or glycyrrhizin (10 μg/ml). The maturation status of DCs was determined by flow cytometry with CD86 and HLA-DR—specific antibodies. Right panel: same experiment, but performed with HIV-1 infected iDCs. Data represent mean±sd of at least three independent experiments, and statistical comparisons were made with the non parametric Mann-Whitney test. * p<0.05. (b) iDC (10^6 cells/ml) were cultured for 48 h with increasing concentrations (1-10 μg/ml) of rh-HMGB1. Cells were then stained with anti-CD86, -HLA-DR, -CD80, -CD83, DC-LAMP and -CD40 antibodies and analyzed by flow cytometry. (c) Influence of rh-HMGB1 on cytokine and chemokine production (determined by MAP) by DCs. iDCs (10^6 cells/ml) were incubated for 48 h in medium or in presence of rh-HMGB1 (1 or 10 μg/ml). As a positive control, iDCs were stimulated with LPS (DC0). […] (e) iDC, DC0, uninfected or HIV-1-infected iDC cocultured for 24 h with aNK cells, were incubated with rh-HMGB1 (1 μg/ml) and subsequently stained with anti-RAGE antibodies and analyzed by flow cytometry. […]

[2] = test system: iDCs; assay: Phenotypic maturation of iDCs cultured with rh-HMGB1 or LPS (flow cytometry); type: cell-based, human
Description: FIG. 1 (a)-(e). aNK cells induce the maturation of primary immature HIV-1-infected DCs. (a) iDCs, generated from purified CD14^+ monocytes in the presence of IL-4 and GM-CSF, were cocultured during 24 h with aNK cells at different ratios. DC survival was determined by flow cytometry with the 7-AAD assay. Surviving DCs were identified as 7AAD^−CD56^− cells. Data represent three independent experiments and values are means±sd. (b) aNK cells induce the maturation of iDCs. Flow cytometry analysis of iDCs, which were either infected with R5-HIV-1 BaL (1 ng/ml of p24) for 3 h or uninfected, were incubated with rNK cells or aNK cells at a ratio of 1:5. Co-staining with HLA-DR and CD86 specific antibodies allowed the identification of mature DCs (CD86^brightHLA-DR^bright) Data from a representative experiment out of three independent experiments are shown. (c) The conditions of infection used in this study were those of a productive infection of iDCs, as shown at day 3 by a significant p24 detection in culture supernatant of infected iDCs and intracellular detection by flow cytometry of p24 in DC targeted by CD40 expression. […] The proportion of mDCs induced by LPS (DC0) (78.1% CD86^brightHLA-DR^bright) is shown as a positive control. […]
FIG. 3 (a)-(e). aNK-dependent maturation of HIV-1-infected iDCs is mediated by HMGB1 and involves RAGE. […] The maturation status of DCs was determined by flow cytometry with CD86 and HLA-DR—specific antibodies. […] Cells were then stained with anti-CD86, -HLA-DR, -CD80, -CD83, DC-LAMP and -CD40 antibodies and analyzed by flow cytometry. (c) Influence of rh-HMGB1 on cytokine and chemokine production (determined by MAP) by DCs. iDCs (10^6 cells/ml) were incubated for 48 h in medium or in presence of rh-HMGB1 (1 or 10 μg/ml). […] (e) iDC, DC0, uninfected or HIV-1-infected iDC cocultured for 24 h with aNK cells, were incubated with rh-HMGB1 (1 μg/ml) and subsequently stained with anti-RAGE antibodies and analyzed by flow cytometry. […]

B1: rh-HMGB1: recombinant human HMGB1 protein (R&D Systems) (protein, UniProt P09429 1-215, looked up)
High mobility group protein B1: MGKGDPKKPRGKMSSYAFFVQTCREEHKKKHPDASVNFSEFSKKCSERWKTMSAKEKGKFEDMAKADKARYEREMKTYIPPKGETKKKFKDPNAPKRPPSAFFLFCSEYRPKIKGEHPGLSIGDVAKKLGEMWNNTAADDKQPYEKKAAKLKEKYEKDIAAYRAKGKPDAAKKGVVKAEKSKKKKEEEEDEEDEEDEEEEEDEEDEDEEEDDDDE
- RAGE surface expression [1]: down-regulation of RAGE was observed
- percentage of CD86bright HLA-DRbright DCs ([2]; 10 μg/ml, 48 h of culture, medium alone 65%): 71%
- phenotypic maturation of iDC ([2]; 24 h with 1 to 10 μg/ml, similar at 48 h): did not induce phenotypic maturation of iDC
- maturation status by CD80, CD83 and DC-lamp expression ([2]; rh-HMGB1-treated DCs, 48 h, compared with DC0): not fully mature
